Reference: patent publication US20200040057A1 (IMMATICS BIOTECHNOLOGIES, published 2020)
Each block holds one binder with its values, some of them ahead of it.

Molecular target: HLA-B*07 (human)
Test: UV peptide exchange ELISA; ++++ = yield >75%

B1: GPRQVLFPL (peptide)
peptide: GPRQVLFPL
peptide exchange yield: > 75%

B4: KPRTPFTTA (peptide)
peptide: KPRTPFTTA
peptide exchange yield: > 75%

B5: RPQPQPRPAL (peptide)
peptide: RPQPQPRPAL
peptide exchange yield: > 75%

B6: RPKHFLQML (peptide)
peptide: RPKHFLQML
peptide exchange yield: > 75%

B8: QPSLKKIIL (peptide)
peptide: QPSLKKIIL
peptide exchange yield: > 75%

B9: APLRVHITSL (peptide)
peptide: APLRVHITSL
peptide exchange yield: > 75%

B11: LPRSPPLKVL (peptide)
peptide: LPRSPPLKVL
peptide exchange yield: > 75%

B12: LPAPTSLVL (peptide)
peptide: LPAPTSLVL
peptide exchange yield: > 75%

B14: LPAFSKIGGIL (peptide)
peptide: LPAFSKIGGIL
peptide exchange yield: > 75%

B15: QPRDGWPMML (peptide)
peptide: QPRDGWPMML
peptide exchange yield: > 75%

B16: IPWFIKTAF (peptide)
peptide: IPWFIKTAF
peptide exchange yield: > 75%

B17: RPNGEVKSEL (peptide)
peptide: RPNGEVKSEL
peptide exchange yield: > 75%

B18: GPRTTQSSVL (peptide)
peptide: GPRTTQSSVL
peptide exchange yield: > 75%

B19: IPTSRVITL (peptide)
peptide: IPTSRVITL
peptide exchange yield: > 75%

B20: APALPGQVTI (peptide)
peptide: APALPGQVTI
peptide exchange yield: > 75%

B21: LPQLKPAL (peptide)
peptide: LPQLKPAL
peptide exchange yield: > 75%

B22: QPVLPSPAC (peptide)
peptide: QPVLPSPAC
peptide exchange yield: > 75%

B25: APSRLLEL (peptide)
peptide: APSRLLEL
peptide exchange yield: > 75%

B26: FPQVGRTAL (peptide)
peptide: FPQVGRTAL
peptide exchange yield: > 75%

B27: LPGEREAAL (peptide)
peptide: LPGEREAAL
peptide exchange yield: > 75%

B30: APQVHIFSL (peptide)
peptide: APQVHIFSL
peptide exchange yield: > 75%

B34: APHAGGALL (peptide)
peptide: APHAGGALL
peptide exchange yield: > 75%

B35: NPASRLTAL (peptide)
peptide: NPASRLTAL
peptide exchange yield: > 75%

B36: RPFSAIAEL (peptide)
peptide: RPFSAIAEL
peptide exchange yield: > 75%

B37: APMAPGRSPL (peptide)
peptide: APMAPGRSPL
peptide exchange yield: > 75%

B38: RPGPQRTTSV (peptide)
peptide: RPGPQRTTSV
peptide exchange yield: > 75%

B39: RPKTSVNLISSL (peptide)
peptide: RPKTSVNLISSL
peptide exchange yield: > 75%

B41: MPHLGPGILL (peptide)
peptide: MPHLGPGILL
peptide exchange yield: > 75%

B43: LPLDTRTSI (peptide)
peptide: LPLDTRTSI
peptide exchange yield: > 75%

B44: KPRTPFTTAQL (peptide)
peptide: KPRTPFTTAQL
peptide exchange yield: > 75%

B45: APLMPLGKTL (peptide)
peptide: APLMPLGKTL
peptide exchange yield: > 75%

B46: QPVKKNTL (peptide)
peptide: QPVKKNTL
peptide exchange yield: > 75%

B47: APKTSFIAA (peptide)
peptide: APKTSFIAA
peptide exchange yield: > 75%

B48: LPAPLRISL (peptide)
peptide: LPAPLRISL
peptide exchange yield: > 75%

B50: LPTDLFNSVM (peptide)
peptide: LPTDLFNSVM
peptide exchange yield: > 75%

B51: KPRNMTGLDL (peptide)
peptide: KPRNMTGLDL
peptide exchange yield: > 75%

B52: RPKSTLMNF (peptide)
peptide: RPKSTLMNF
peptide exchange yield: > 75%

B54: LPRGVLEGL (peptide)
peptide: LPRGVLEGL
peptide exchange yield: > 75%

B55: FPVQATIDF (peptide)
peptide: FPVQATIDF
peptide exchange yield: > 75%

B56: APRGPAQGEAA (peptide)
peptide: APRGPAQGEAA
peptide exchange yield: > 75%

B57: APKFISPASQL (peptide)
peptide: APKFISPASQL
peptide exchange yield: > 75%

B58: LPSLHVLVL (peptide)
peptide: LPSLHVLVL
peptide exchange yield: > 75%

B61: RPPLSQRHTF (peptide)
peptide: RPPLSQRHTF
peptide exchange yield: > 75%

B62: MPLLADVRL (peptide)
peptide: MPLLADVRL
peptide exchange yield: > 75%

B67: IPMPRITWL (peptide)
peptide: IPMPRITWL
peptide exchange yield: > 75%

B68: NPVPVITWYKDNRL (peptide)
peptide: NPVPVITWYKDNRL
peptide exchange yield: > 75%

B72: FPRTVKHIDAAL (peptide)
peptide: FPRTVKHIDAAL
peptide exchange yield: > 75%

B73: RPSFPNLTSF (peptide)
peptide: RPSFPNLTSF
peptide exchange yield: > 75%

B74: APAKDARASL (peptide)
peptide: APAKDARASL
peptide exchange yield: > 75%

Other lines, results leading:

peptide exchange yield: > 75%
B2: VPRNQDWLGVSRQL (peptide)
peptide: VPRNQDWLGVSRQL

peptide exchange yield: > 75%
B3: VPYPSPTCV (peptide)
peptide: VPYPSPTCV

peptide exchange yield: > 75%
B7: VPIPTHYFVVL (peptide)
peptide: VPIPTHYFVVL

peptide exchange yield: > 75%
B10: SPRSNPVRL (peptide)
peptide: SPRSNPVRL

peptide exchange yield: > 75%
B13: SPRRLVELAGQSL (peptide)
peptide: SPRRLVELAGQSL

peptide exchange yield: > 75%
B23: TPHGITDIL (peptide)
peptide: TPHGITDIL

peptide exchange yield: > 75%
B24: SPDPAHLESL (peptide)
peptide: SPDPAHLESL

peptide exchange yield: > 75%
B28: SPRQPRLDF (peptide)
peptide: SPRQPRLDF

peptide exchange yield: > 75%
B29: VPRPTSTVGLFL (peptide)
peptide: VPRPTSTVGLFL

peptide exchange yield: > 75%
B31: SPMEAILVSRL (peptide)
peptide: SPMEAILVSRL

peptide exchange yield: > 75%
B32: SPYPGSAAF (peptide)
peptide: SPYPGSAAF

peptide exchange yield: > 75%
B33: VPKSLPYVL (peptide)
peptide: VPKSLPYVL

peptide exchange yield: > 75%
B40: VPKADLLTL (peptide)
peptide: VPKADLLTL

peptide exchange yield: > 75%
B42: SPSFSSTLLSL (peptide)
peptide: SPSFSSTLLSL

peptide exchange yield: > 75%
B49: SPAPWRPWI (peptide)
peptide: SPAPWRPWI

peptide exchange yield: > 75%
B53: SPSSASLTL (peptide)
peptide: SPSSASLTL

peptide exchange yield: > 75%
B59: VPILPLNHAL (peptide)
peptide: VPILPLNHAL

peptide exchange yield: > 75%
B60: SPYGSDRLVQL (peptide)
peptide: SPYGSDRLVQL

peptide exchange yield: > 75%
B63: SPYAGSTAF (peptide)
peptide: SPYAGSTAF

peptide exchange yield: > 75%
B64: RPYGCVLRAA (peptide)
peptide: RPYGCVLRAA

peptide exchange yield: > 75%
B65: SPSYTQASL (peptide)
peptide: SPSYTQASL

peptide exchange yield: > 75%
B66: SPTLRQLDL (peptide)
peptide: SPTLRQLDL

peptide exchange yield: > 75%
B69: SPASRSISLL (peptide)
peptide: SPASRSISLL

peptide exchange yield: > 75%
B70: YPLSLALHF (peptide)
peptide: YPLSLALHF

peptide exchange yield: > 75%
B71: WPNHIMLVL (peptide)
peptide: WPNHIMLVL

peptide exchange yield: > 75%
B75: SPLEKINSF (peptide)
peptide: SPLEKINSF
